Where a chain is given by its changes, count along the chain named.
T1: human GM-CSFRα, full length on cells (human, UniProt P15509 23-400)
T1 sequence: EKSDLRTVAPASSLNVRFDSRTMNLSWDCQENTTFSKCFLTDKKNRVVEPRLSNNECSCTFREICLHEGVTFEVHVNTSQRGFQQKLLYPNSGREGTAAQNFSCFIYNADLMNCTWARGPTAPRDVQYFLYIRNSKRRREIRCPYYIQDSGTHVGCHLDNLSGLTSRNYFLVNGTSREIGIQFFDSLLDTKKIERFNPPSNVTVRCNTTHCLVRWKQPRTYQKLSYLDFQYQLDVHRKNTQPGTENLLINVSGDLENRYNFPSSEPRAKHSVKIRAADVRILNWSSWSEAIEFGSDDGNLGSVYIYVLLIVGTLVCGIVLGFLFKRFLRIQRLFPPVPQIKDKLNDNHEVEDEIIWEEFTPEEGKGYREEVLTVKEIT

B1: E35-scFv HE31N (scFv, V domains shown)
VH: QMQLVQSGAEVKKPGASVKVSCKVSGYTLTNLSIHWVRQAPGKGLEWMGGFDPEDGETIYAQKFQGRVTMTGDTSTDTAYLELSSLRSEDTALYYCATGRYTSLATTYGFDYWGQGTLVTVSS
VL: EIVMTQSPATLSLSPGERATLSCRASQSVSSYLAWYQQKPGQAPRLLIYGASSRATGIPDRFSGSGSGTDFTLTISRLEPEDFAVYYCQQYDNWPYTFGQGTKLEIK
B2: E35-scFv LN93F (scFv, V domains shown)
VH: B1 VH with N31E
VL: B1 VL with N93F
B3: E35-scFv LN93E (scFv, V domains shown)
VH: B1 VH with N31E
VL: B1 VL with N93E
B4: E35-scFv LN93K (scFv, V domains shown)
VH: B1 VH with N31E
VL: B1 VL with N93K
B5: E35-scFv HE31M (scFv, V domains shown)
VH: B1 VH with N31M
VL: B1 VL
B6: E35-scFv HE31V (scFv, V domains shown)
VH: B1 VH with N31V
VL: B1 VL
B7: E35-scFv LD92S (scFv, V domains shown)
VH: B1 VH with N31E
VL: B1 VL with D92S
B8: E35-scFv LN93I (scFv, V domains shown)
VH: B1 VH with N31E
VL: B1 VL with N93I
B9: E35-scFv LN93D (scFv, V domains shown)
VH: B1 VH with N31E
VL: B1 VL with N93D
B10: E35-scFv LD92P (scFv, V domains shown)
VH: B1 VH with N31E
VL: B1 VL with D92P
B11: E35-scFv LN93G (scFv, V domains shown)
VH: B1 VH with N31E
VL: B1 VL with N93G
B12: E35-scFv LN93L (scFv, V domains shown)
VH: B1 VH with N31E
VL: B1 VL with N93L
B13: E35-scFv HE31F (scFv, V domains shown)
VH: B1 VH with N31F
VL: B1 VL
B14: E35-scFv LD92K (scFv, V domains shown)
VH: B1 VH with N31E
VL: B1 VL with D92K
B15: E35-scFv LN93M (scFv, V domains shown)
VH: B1 VH with N31E
VL: B1 VL with N93M
B16: E35-scFv LN93H (scFv, V domains shown)
VH: B1 VH with N31E
VL: B1 VL with N93H
B17: E35-scFv HE31G (scFv, V domains shown)
VH: B1 VH with N31G
VL: B1 VL
B18: E35-scFv LN93T (scFv, V domains shown)
VH: B1 VH with N31E
VL: B1 VL with N93T
B19: E35-scFv HE31W (scFv, V domains shown)
VH: B1 VH with N31W
VL: B1 VL
B20: E35-scFv LN93P (scFv, V domains shown)
VH: B1 VH with N31E
VL: B1 VL with N93P
B21: E35-scFv LN93S (scFv, V domains shown)
VH: B1 VH with N31E
VL: B1 VL with N93S
B22: E35-scFv HE31K (scFv, V domains shown)
VH: B1 VH with N31K
VL: B1 VL
B23: E35-scFv LD92I (scFv, V domains shown)
VH: B1 VH with N31E
VL: B1 VL with D92I
B24: E35-scFv HE31Y (scFv, V domains shown)
VH: B1 VH with N31Y
VL: B1 VL
B25: E35-scFv HE31S (scFv, V domains shown)
VH: B1 VH with N31S
VL: B1 VL
B26: E35-scFv HE31D (scFv, V domains shown)
VH: B1 VH with N31D
VL: B1 VL
B27: E35-scFv LN93R (scFv, V domains shown)
VH: B1 VH with N31E
VL: B1 VL with N93R
B28: E35-scFv LN93A (scFv, V domains shown)
VH: B1 VH with N31E
VL: B1 VL with N93A
B29: E35-scFv HE31P (scFv, V domains shown)
VH: B1 VH with N31P
VL: B1 VL
B30: E35-scFv LN93Y (scFv, V domains shown)
VH: B1 VH with N31E
VL: B1 VL with N93Y
B31: E35-scFv HE31A (scFv, V domains shown)
VH: B1 VH with N31A
VL: B1 VL

Biological target: T1, human GM-CSFRα, full length on cells
Assay: cell-based or functional assay

Binder	IC50, TF-1 cell proliferation
B1	0.11 µg/mL
B2	0.3 µg/mL
B3	0.081 µg/mL
B4	0.78 µg/mL
B5	0.13 µg/mL
B6	0.22 µg/mL
B7	0.598 µg/mL
B8	0.33 µg/mL
B9	0.045 µg/mL
B10	0.881 µg/mL
B11	0.205 µg/mL
B12	0.33 µg/mL
B13	0.18 µg/mL
B14	0.64 µg/mL
B15	0.27 µg/mL
B16	0.45 µg/mL

Binder	IC50, TF-1 cell proliferation
B17	0.116 µg/mL
B18	0.14 µg/mL
B19	0.26 µg/mL
B20	0.66 µg/mL
B21	0.3 µg/mL
B22	0.23 µg/mL
B23	0.597 µg/mL
B24	0.2 µg/mL
B25	0.14 µg/mL
B26	0.13 µg/mL
B27	0.6 µg/mL
B28	0.21 µg/mL
B29	0.17 µg/mL
B30	0.156 µg/mL
B31	0.21 µg/mL
